Assay results published in patent US20210292428A1 (US Dept. of Health and Human Services, published 2021).

Key:
Human GPC2-His = target: T1, Human GPC2-His (human, UniProt Q8N158 24-554)
T1 sequence: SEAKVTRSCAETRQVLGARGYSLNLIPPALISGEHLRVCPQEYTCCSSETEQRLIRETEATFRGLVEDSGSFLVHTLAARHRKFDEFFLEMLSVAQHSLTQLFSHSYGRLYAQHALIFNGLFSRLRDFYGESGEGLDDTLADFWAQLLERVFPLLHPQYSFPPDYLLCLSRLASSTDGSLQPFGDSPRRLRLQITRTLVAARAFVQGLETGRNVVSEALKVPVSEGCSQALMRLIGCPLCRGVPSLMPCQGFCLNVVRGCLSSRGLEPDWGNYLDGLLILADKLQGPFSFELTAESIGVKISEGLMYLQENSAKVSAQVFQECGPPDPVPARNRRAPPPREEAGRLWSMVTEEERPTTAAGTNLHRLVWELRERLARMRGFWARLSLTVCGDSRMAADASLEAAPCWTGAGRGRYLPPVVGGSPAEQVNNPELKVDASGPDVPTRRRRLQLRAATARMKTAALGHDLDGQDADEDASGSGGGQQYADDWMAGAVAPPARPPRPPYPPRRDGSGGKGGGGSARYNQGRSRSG

[1] = target: T2, recombinant human glypican-3 (human, UniProt P51654 25-559); assay: ELISA on recombinant glypican proteins, absorbance OD450nm
T2 construct: also called human GPC3; huGPC3

[2] = target: T3, recombinant human glypican-4 (human, UniProt O75487 19-529, limits assumed); assay: ELISA on recombinant human glypicans and mouse GPC2, absorbance OD450nm
T3 construct: also called huGPC4
T3 sequence (looked up): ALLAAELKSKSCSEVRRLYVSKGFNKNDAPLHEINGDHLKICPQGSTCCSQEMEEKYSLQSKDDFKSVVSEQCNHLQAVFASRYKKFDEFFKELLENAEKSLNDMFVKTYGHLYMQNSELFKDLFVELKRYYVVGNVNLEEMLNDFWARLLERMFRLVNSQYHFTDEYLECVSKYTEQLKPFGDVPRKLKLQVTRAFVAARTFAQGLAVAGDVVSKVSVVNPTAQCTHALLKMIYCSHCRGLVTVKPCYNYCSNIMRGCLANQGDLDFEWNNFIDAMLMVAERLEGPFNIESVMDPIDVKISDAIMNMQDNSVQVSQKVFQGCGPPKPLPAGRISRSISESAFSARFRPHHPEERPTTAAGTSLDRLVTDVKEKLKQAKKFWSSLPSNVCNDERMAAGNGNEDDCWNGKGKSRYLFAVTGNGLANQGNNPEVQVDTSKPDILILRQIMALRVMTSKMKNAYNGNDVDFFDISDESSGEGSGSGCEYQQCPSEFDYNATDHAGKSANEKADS

[3] = target: T4, recombinant human glypican-6 (human, UniProt Q9Y625 24-529); assay: as above
T4 construct: also called human GPC6; huGPC6
T4 sequence (looked up): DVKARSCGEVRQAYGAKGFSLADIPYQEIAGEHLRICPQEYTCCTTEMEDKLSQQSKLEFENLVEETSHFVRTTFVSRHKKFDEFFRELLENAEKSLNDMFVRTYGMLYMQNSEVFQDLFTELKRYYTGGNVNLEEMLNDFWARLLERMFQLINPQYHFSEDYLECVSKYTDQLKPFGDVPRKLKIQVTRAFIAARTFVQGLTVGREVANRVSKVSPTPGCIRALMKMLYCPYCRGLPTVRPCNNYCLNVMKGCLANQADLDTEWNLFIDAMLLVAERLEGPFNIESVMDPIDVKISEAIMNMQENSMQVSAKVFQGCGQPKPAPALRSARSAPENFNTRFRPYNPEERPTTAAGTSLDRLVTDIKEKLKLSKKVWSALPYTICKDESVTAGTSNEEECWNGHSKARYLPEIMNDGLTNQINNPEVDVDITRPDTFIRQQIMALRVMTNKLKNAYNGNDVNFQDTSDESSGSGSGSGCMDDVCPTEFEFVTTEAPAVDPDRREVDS

[4] = target: T5, recombinant human glypican-1 (human, UniProt P35052 24-530); assay: as above
T5 construct: also called huGPC1
T5 sequence (looked up): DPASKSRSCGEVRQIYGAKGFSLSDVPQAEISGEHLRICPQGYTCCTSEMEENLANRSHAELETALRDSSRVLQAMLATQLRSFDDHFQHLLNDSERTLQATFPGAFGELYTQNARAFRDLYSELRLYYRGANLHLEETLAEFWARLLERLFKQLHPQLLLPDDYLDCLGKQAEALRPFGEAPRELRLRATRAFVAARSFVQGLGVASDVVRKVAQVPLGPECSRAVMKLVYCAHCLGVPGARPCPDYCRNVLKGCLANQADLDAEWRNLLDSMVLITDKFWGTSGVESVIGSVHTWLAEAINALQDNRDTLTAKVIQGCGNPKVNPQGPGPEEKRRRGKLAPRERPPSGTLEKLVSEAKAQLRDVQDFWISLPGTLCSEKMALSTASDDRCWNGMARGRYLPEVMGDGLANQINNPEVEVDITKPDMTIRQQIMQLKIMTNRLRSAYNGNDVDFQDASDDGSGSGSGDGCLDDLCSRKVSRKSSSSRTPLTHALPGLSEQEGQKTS

recombinant mouse GPC2 = target: T6, recombinant mouse GPC2 (mouse, UniProt Q8BKV1 22-556, limits assumed); assay: as above
T6 construct: also called msGPC2
T6 sequence (looked up): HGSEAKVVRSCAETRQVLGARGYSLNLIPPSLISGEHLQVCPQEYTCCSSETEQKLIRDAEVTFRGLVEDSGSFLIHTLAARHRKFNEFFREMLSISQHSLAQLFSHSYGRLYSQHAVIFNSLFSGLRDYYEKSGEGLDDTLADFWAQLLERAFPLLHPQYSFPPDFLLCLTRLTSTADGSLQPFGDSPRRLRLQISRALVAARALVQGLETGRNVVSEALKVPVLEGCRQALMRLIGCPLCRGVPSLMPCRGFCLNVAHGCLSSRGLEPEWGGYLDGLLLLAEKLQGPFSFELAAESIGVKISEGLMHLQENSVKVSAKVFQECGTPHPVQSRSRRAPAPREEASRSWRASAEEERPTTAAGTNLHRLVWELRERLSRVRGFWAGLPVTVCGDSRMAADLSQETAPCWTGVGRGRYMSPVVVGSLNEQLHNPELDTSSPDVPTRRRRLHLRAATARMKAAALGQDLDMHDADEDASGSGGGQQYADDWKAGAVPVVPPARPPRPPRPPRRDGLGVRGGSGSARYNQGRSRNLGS

[5] = target: T7, recombinant human glypican-5 (human, UniProt P78333 25-554, limits assumed); assay: as above
T7 construct: also called huGPC5
T7 sequence (looked up): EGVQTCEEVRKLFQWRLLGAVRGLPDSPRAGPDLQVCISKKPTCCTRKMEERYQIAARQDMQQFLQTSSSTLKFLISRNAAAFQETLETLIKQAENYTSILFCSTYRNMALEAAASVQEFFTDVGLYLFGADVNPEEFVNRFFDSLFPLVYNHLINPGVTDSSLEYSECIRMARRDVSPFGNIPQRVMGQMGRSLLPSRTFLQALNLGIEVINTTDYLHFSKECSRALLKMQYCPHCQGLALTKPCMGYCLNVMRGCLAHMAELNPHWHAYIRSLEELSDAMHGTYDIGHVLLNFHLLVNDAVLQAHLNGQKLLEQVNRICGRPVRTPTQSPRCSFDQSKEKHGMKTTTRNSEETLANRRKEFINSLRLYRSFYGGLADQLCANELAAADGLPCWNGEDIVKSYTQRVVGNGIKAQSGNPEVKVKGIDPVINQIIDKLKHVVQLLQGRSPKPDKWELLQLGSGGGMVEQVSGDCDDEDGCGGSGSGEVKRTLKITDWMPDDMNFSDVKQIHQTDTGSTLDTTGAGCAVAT

[6] = target: T8, recombinant human glypican-2 (GPC2) (human, UniProt Q8N158 24-554, limits assumed); assay: Octet kinetic analysis (BLI), FIG. 1C
T8 construct: also called human GPC2; huGPC2
T8 sequence (looked up): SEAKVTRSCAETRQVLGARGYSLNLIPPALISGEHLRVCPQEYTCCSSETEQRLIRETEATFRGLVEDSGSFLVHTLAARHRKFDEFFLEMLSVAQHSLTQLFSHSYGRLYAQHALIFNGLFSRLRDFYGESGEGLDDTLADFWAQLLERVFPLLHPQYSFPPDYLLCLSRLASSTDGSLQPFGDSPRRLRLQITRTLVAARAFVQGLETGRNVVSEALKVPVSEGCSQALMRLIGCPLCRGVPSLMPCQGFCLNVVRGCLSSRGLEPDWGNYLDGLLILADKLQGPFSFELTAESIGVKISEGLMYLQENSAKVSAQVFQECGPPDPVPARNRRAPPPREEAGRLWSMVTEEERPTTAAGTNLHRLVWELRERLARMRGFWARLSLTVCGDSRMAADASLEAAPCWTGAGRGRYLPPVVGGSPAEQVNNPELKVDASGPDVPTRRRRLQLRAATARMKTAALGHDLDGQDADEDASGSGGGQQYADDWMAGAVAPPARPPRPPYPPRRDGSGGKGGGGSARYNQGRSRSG

[7] = target: T8, recombinant human glypican-2 (GPC2); assay: ELISA on recombinant glypican proteins, absorbance OD450nm
[8] = target: T4, recombinant human glypican-6; assay: as above
[9] = target: T7, recombinant human glypican-5; assay: as above
[10] = target: T9, human GPC2 expressed on the cell surface (human, UniProt Q8N158 24-554); assay: flow cytometry on GPC2-positive neuroblastoma cell lines LAN1 and IMR5, CT5 at 10 ng/ml, counts normalized to mode
T9 construct: whole, on cells; also called cell-surface GPC2; GPC2 on LAN1, IMR5, G10, F8, SKNBE2 and NBEB cells
T9 sequence (looked up): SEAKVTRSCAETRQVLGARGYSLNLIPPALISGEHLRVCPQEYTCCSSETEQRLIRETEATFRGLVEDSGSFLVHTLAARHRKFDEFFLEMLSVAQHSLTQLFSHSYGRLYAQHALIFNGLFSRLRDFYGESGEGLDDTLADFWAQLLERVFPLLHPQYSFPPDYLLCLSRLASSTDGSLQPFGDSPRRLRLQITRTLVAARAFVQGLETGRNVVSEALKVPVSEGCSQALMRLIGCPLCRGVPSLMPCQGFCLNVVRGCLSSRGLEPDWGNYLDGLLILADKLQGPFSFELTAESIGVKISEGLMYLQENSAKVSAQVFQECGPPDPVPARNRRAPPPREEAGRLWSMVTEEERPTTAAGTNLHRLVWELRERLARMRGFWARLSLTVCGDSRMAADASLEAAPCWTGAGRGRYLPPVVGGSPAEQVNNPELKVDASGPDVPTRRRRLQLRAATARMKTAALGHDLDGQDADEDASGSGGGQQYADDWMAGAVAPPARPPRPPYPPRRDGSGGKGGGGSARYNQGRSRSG

T2 sequence (P51654 25-559 limits assumed): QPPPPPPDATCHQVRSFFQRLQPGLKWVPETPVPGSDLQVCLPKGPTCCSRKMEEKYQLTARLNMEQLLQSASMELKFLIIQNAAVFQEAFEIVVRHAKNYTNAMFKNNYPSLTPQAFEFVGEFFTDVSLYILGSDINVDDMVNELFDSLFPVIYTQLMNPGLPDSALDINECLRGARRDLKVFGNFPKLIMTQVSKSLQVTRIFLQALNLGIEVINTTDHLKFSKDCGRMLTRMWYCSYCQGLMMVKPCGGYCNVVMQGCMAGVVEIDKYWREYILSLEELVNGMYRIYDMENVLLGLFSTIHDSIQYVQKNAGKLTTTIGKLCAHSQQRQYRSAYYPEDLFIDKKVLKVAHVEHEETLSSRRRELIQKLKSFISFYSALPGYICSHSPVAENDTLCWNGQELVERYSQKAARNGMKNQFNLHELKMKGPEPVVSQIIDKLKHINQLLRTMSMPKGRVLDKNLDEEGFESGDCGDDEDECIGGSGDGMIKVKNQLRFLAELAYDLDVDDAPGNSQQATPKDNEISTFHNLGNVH

B1: CT3-T20 immunotoxin (other)
chain: EVQLQQSGPELVKPGASVKMSCKASRFTFTDYNIHWVKQSPGKTLEWIGYINPNNGDIFYKQKFNGKATLTINKSSNTAYMELRSLTSEDSAVYYCVRSSNIRYTFDRFFDVWGTGTTVTVSSGGGGSGGGGSGGGGSENVLTQSPAIMSASLGEKVTMSCRASSSVNYIYWYQQKSDASPKLWIYYTSNLAPGVPARFSGSGSGNSYSLTISSMEGEDAATYYCQQFSSSPSTFGTGTKLELKKLKASGGRHRQPRGWEQLGGGGGSPTGAEFLGDGGDVSFSTRGTQNWTVERLLQAHAQLEERGYVFVGYHGTALEAAQSIVFGGVRARSQDLDAIWRGFYIAGDPAHAYGYAQDQEPDARGRIANGALLRVYVPASSLPGFYRTSLTLAAPEAAGEVERLIGHPLPLRLDAITGPEEEGGREETILGWPLAERTVVIPSAIPTDPRNVGGDLDPSSIPDKEQAISALPDYASQPGKPPREDLK
Human GPC2-His
  Kd: 0.16 nM

B2: CT3-PE38 immunotoxin (other)
chain: EVQLQQSGPELVKPGASVKMSCKASRFTFTDYNIHWVKQSPGKTLEWIGYINPNNGDIFYKQKFNGKATLTINKSSNTAYMELRSLTSEDSAVYYCVRSSNIRYTFDRFFDVWGTGTTVTVSSGGGGSGGGGSGGGGSENVLTQSPAIMSASLGEKVTMSCRASSSVNYIYWYQQKSDASPKLWIYYTSNLAPGVPARFSGSGSGNSYSLTISSMEGEDAATYYCQQFSSSPSTFGTGTKLELKSAAKASGGPEGGSLAALTAHQACHLPLETFTRHRQPRGWEQLEQCGYPVQRLVALYLAARLSWNQVDQVIRNALASPGSGGDLGEAIREQPEQARLALTLAAAESERFVRQGTGNDEAGAANGPADSGDALLERNYPTGAEFLGDGGDVSFSTRGTQNWTVERLLQAHRQLEERGYVFVGYHGTFLEAAQSIVFGGVRARSQDLDAIWRGFYIAGDPALAYGYAQDQEPDARGRIRNGALLRVYVPRSSLPGFYRTSLTLAAPEAAGEVERLIGHPLPLRLDAITGPEEEGGRLETILGWPLAERTVVIPSAIPTDPRNVGGDLDPSSIPDKEQAISALPDYASQPGKPPREDLK
Human GPC2-His
  Kd: 0.22 nM

B3: CT3 antibody (antibody, IgG1, V domains shown)
VH: EVQLQQSGPELVKPGASVKMSCKASRFTFTDYNIHWVKQSPGKTLEWIGYINPNNGDIFYKQKFNGKATLTINKSSNTAYMELRSLTSEDSAVYYCVRSSNIRYTFDRFFDVWGTGTTVTVSS
VL: ENVLTQSPAIMSASLGEKVTMSCRASSSVNYIYWYQQKSDASPKLWIYYTSNLAPGVPARFSGSGSGNSYSLTISSMEGEDAATYYCQQFSSSPSTFGTGTKLELK
notes: also called anti-GPC2 antibody CT3
[1]
  binding result: no binding
[2]
  binding result: no binding
[3]
  binding result: no binding
[4]
  binding result: no binding
Recombinant mouse GPC2
  binding result: no binding
[5]
  binding result: no binding
[6]
  Kd: 0.5 nM

B4: CT5 antibody (antibody, IgG1, V domains shown)
VH: EVKLVESGGGLVQSGRSLRLSCATSGFTFSDFYMEWVRQAPGKGLEWIVASRDKANDYTTAYSASVKGRFIVSRDTSQSILYLQMNALRAEDTAIYYCVRDFYDYDEAYWGQGTLVTVS
VL: DIQMTQSPSSLSASLGGTVTITCKASEDINNYIAWYQHKPGKGPRLLIQYTSTLQPGIPSRFSGSGSGRDYSLSISNLEPEDIATYYCLQYDILWTFGGGTKLEIK
[7]
  binding result: binds
[8]
  binding result: no binding
[1]
  binding result: no binding
[9]
  binding result: no binding
[10]
  binding result: binds
